From patent US20260139048A1 (NANJING LEGEND BIOTECH, published 2026) come the findings set out here.

T1: TIGIT on TIGIT-over expressing NFAT-Luc/Jurkat effector cells (GenScript reporter cell line) (UniProt Q495A1 22-244, limits assumed)
T1 sequence (looked up): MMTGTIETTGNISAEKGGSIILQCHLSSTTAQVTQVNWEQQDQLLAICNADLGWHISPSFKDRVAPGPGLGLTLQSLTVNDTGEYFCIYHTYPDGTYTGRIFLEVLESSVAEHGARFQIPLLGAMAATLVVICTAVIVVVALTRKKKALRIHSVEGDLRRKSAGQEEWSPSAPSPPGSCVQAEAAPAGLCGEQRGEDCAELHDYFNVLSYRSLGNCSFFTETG

T2: human TIGIT expressed on CHO-K1 cells (human, UniProt Q495A1 22-244)
T2 construct: whole, on cells; also called human TIGIT-CHO-K1 cells; human TIGIT over-expressing cell line
T2 sequence (looked up): T1 sequence (looked up)

T3: His-tagged human TIGIT (human, UniProt Q495A1 22-141)
T3 construct: SPR analyte; also called human TIGIT protein; not shown: His tag
T3 sequence: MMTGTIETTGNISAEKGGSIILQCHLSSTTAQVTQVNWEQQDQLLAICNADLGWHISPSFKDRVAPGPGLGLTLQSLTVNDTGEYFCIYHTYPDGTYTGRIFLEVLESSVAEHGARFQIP

B1: huTIGIT-6-1 (antibody, human IgG1, kappa, V domains shown)
VH: QVQLVQSGAEVKKPGASVKVSCKASGYTITENTMHWVRQAPGQRLEWIGGINPNQGGTSYSQKFQGRATLTVDTSASTAYMELSSLRSEDTAVYYCTRSSYYRYDLDYWGQGTTVTVSS
VL: DIQMTQSPSSLSASVGDRVTITCQASQDIKTALAWYQQKPGKAPKLLIYSASYRYTGVPSRFSGSGSGTDFTFTISSLQPEDIATYYCHQHYTTPWTFGGGTKLEIKR
notes: Humanized IgG; also called 6VH6.M4 + 6VL1.M1
B2: huTIGIT-6-3 (antibody, human IgG1, kappa, V domains shown)
VH: B1 VH with I29F, T33A
VL: B1 VL
notes: Humanized IgG; also called 6VH6.M6 + 6VL1.M1
B3: huTIGIT-6-2 (antibody, human IgG1, kappa, V domains shown)
VH: B1 VH with Q55N, G56A
VL: B1 VL
notes: Humanized IgG; also called 6VH6.M5 + 6VL1.M1
B4: huTIGIT-19-4 (antibody, human IgG1, kappa, V domains shown)
VH: QVQLVQSGAEVKKPGASVKVSCKASGYTFTRYSMYWVRQAPGQGLEWIAFIDAYSGGSTYAQKFQGKATLTVDTSISTAYMELSRLRSDDTAVYYCARGGDYGWYLGVWGQGTLVTVSS
VL: DIQMTQSPSSLSASVGDRVTITCRASQSIYSYLSWYQQKPGKAPKLLIYNAKSLPSGVPSRFSGSGSGTDFTLTISSLQPEDFATYYCQHHYGNPLTFGQGTKVEIKR
notes: Humanized IgG; also called 19VH4.M10 + 19VL1.M7

Positions count from the first letter of the chain named.

For the first assay, the target named is T4, cynomolgus TIGIT expressed on CHO-K1 cells (cynomolgus, UniProt A0A7N9I9V4 89-312).
T4 construct: whole, on cells; also called cynomolgus TIGIT over-expressing cell line
T4 sequence (A0A7N9I9V4 entry or part of it): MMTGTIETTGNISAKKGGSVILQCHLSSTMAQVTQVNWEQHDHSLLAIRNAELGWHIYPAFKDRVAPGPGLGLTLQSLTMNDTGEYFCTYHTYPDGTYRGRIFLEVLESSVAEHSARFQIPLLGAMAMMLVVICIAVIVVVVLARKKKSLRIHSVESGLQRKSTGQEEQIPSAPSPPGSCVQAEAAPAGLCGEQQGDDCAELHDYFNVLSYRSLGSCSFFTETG
Description: flow cytometry on CHO-K1 cells expressing cynomolgus TIGIT.
One may read the EC50 as the concentration at which the effect is half-maximal. Regarding B1, the midpoint of the response, the EC50, lay at 4.69 nM.
B2 yielded a 50% effective concentration (EC50) of 8.2 nM.
Turning to B3, the concentration giving a half-maximal response (EC50) turned out to be 4.98 nM.
For B4, the response was half-maximal at 0.408 nM (EC50).

Another assay concerns the target T1, TIGIT on TIGIT-over expressing …. Description: cell-based or functional assay.
Regarding B1, the “Bottom (RLU)” value amounted to 51200 RLU, the concentration giving a half-maximal response (EC50) was 9.1 nM and the “Top (RLU)” value worked out at 131000 RLU.
With B2, the “Bottom (RLU)” value stood at 49400 RLU, the “EC50” value was determined as 11.1 nM and the “Top (RLU)” value came out at 135000 RLU.
B3: the “Bottom (RLU)” value amounted to 49800 RLU, the “EC50” value is 9.03 nM and the “Top (RLU)” value amounted to 129000 RLU.
Consider B4, for which the “Bottom (RLU)” value came out at 51300 RLU, the “EC50” value came to 4.28 nM and the “Top (RLU)” value came to 148000 RLU.

Another assay concerns the target T2, human TIGIT expressed on CHO-K1 cells. Description: flow cytometry on CHO-K1 cells expressing human TIGIT. On the technique in general: Flow cytometry measures light scatter and fluorescence of single cells or particles in a stream.
As for B1, the midpoint of the response, the EC50, lay at 1.16 nM.
B2 displayed an EC50 of 1.11 nM.
B3: the EC50 was 0.745 nM.
B4 had an EC50 of 0.172 nM.

The target is the same in a further assay. The experiment in a line: flow cytometry competition: biotinylated CD155-Fc on human TIGIT-CHO-K1 cells.
In general, IC50 refers to the concentration that gives 50% inhibition. The molecule B1 came in with a half-maximal inhibitory concentration (IC50) of 1.04 nM.
Still for that read-out and setting: as for B2, the figure is 1.1 nM.
Same read-out and setting: the figure for B3 is 0.975 nM; for B4 it is 0.26 nM.

In another assay the target is T3, His-tagged human TIGIT. Description: SPR (Biacore T200), antibody captured, His-tagged TIGIT analyte. A general note: SPR reads the build-up and loss of mass on a sensor chip optically.
By Kd is commonly meant a measure of binding affinity in units of concentration. A lower Kd goes with a tighter complex. The term koff denotes the first-order rate constant of dissociation. As usually defined, the kon is a measure of how fast the partners come together. A high value points to faster complex formation. With B1, binding was put at a Kd of 0.21 nM, the koff turned out to be 5.6e-05 s⁻¹ and the kon is 260000 M⁻¹ s⁻¹.
For B2 the same measures were 0.29 nM, 9.8e-05 s⁻¹ and 340000 M⁻¹ s⁻¹.
B3 returned a dissociation constant Kd of 0.27 nM, a koff of 9.6e-05 s⁻¹ and a kon of 350000 M⁻¹ s⁻¹.
The molecule B4 registered a Kd of 0.49 nM, a koff of 0.00059 s⁻¹ and a kon of 1.2e+06 M⁻¹ s⁻¹.

For a further assay, the target named is T5, His-tagged cynomolgus TIGIT (cynomolgus, UniProt A0A7N9I9V4 89-209).
T5 construct: SPR analyte; also called cynomolgus TIGIT protein; not shown: His tag
T5 sequence (A0A7N9I9V4 entry or part of it): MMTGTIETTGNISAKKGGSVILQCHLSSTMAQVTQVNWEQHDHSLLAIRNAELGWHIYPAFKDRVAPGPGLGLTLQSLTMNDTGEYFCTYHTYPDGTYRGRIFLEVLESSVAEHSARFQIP
The assay is described as above.
Turning to B1, the Kd was determined as 75 nM, the dissociation rate constant (koff) stood at 0.0044 s⁻¹ and the on-rate (kon) worked out at 59000 M⁻¹ s⁻¹.
In turn, B2 gave a dissociation constant Kd of 130 nM, a koff of 0.0078 s⁻¹ and an on-rate constant (kon) of 61000 M⁻¹ s⁻¹.
For B3 the same measures were 110 nM, 0.0074 s⁻¹ and 69000 M⁻¹ s⁻¹.
Regarding B4, the affinity, expressed as Kd, was 0.087 nM; the koff was 7.3e-05 s⁻¹; the kon was found to be 840000 M⁻¹ s⁻¹.

Another assay addresses T3, His-tagged human TIGIT. Description: SPR experiment 2, IgG from HEK293 supernatant captured.
Molecule B1 registered a Kd of 0.34 nM, a koff of 9.8e-05 s⁻¹ and an on-rate (kon) of 280000 M⁻¹ s⁻¹.
For B2 the same measures were 0.64 nM, 0.00017 s⁻¹ and 270000 M⁻¹ s⁻¹.
Molecule B3 had a Kd of 0.71 nM, a koff of 0.00022 s⁻¹ and a kon of 300000 M⁻¹ s⁻¹.
